Source: US20230227537A1 (VIB VZW, published 2023)

Tests used:
[1] = target: SARS-CoV-2 spike, full length, on cells or on pseudotyped/authentic virus (SARS-CoV-2, UniProt P0DTC2 14-1273); experiment: cell-based or functional assay
[2] = target: Mouse IgG1 Fc fused SARS-CoV-2 RBD (Sino Biological) (SARS-CoV-2; mouse, UniProt P0DTC2 330-518); experiment: BLI, immobilized RBD-mFc

B1: D72-55: VHH72_h1_E1D_S56A-(G4S)3-VHH72_h3_S56A-GS-hIgG1hinge_EPKSCdel-hIgG1Fc_LALAPG_Kdel (Fc fusion)
chain: DVQLVESGGGLVQPGGSLRLSCAASGRTFSEYAMGWFRQAPGKEREFVATISWSGGATYYTDSVKGRFTISRDNAKNTVYLQMNSLRPEDTAVYYCAAAGLGTVVSEWDYDYDYWGQGTLVTVSSGGGGSGGGGSGGGGSDVQLVESGGGLVQPGGSLRLSCAASGRTFSEYAMGWFRQAPGKEREFVATISWSGGATYYTDSVKGRFTISRDNAKNTVYLQMNSLRPEDTAVYYCAAAGLGTVVSEWDYDYDYWGQGTLVTVSSGSDKTHTCPPCPAPEAAGGPSVFLFPPKPKDTLMISRTPEVTCVVVDVSHEDPEVKFNWYVDGVEVHNAKTKPREEQYNSTYRVVSVLTVLHQDWLNGKEYKCKVSNKALGAPIEKTISKAKGQPREPQVYTLPPSRDELTKNQVSLTCLVKGFYPSDIAVEWESNGQPENNYKTTPPVLDSDGSFFLYSKLTVDKSRWQQGNVFSCSVMHEALHNHYTQKSLSLSPG
notes: Tetravalent; ExpiCHO
PRNT50, authentic SARS-CoV-2 [1]: 0.02 µg/mL
fold lower PRNT50 than the parental construct [1]: 50 fold
fold higher affinity than its bivalent counterpart [2]: > 100 fold
